According to paper PMC10400941 (Proceedings of the National Academy of Sciences of the …, 2023):

Legend:
RpnAL = target: T1, RpnAL (E. coli, UniProt P31667 1-292); assay: SEC-MALS
T1 sequence (looked up): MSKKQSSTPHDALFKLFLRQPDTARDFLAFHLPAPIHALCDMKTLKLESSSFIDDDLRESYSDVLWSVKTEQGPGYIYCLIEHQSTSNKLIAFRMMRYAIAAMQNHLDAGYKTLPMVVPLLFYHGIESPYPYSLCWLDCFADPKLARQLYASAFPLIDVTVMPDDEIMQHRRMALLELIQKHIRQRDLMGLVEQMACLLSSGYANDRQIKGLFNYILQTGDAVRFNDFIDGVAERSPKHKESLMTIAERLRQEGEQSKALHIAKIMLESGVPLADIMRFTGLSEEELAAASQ

SEC-MALS = target: the molecule itself; assay: SEC-MALS

stoichiometry N (RpnAL): 1 RpnAS per RpnAL (2:2)
B1: RpnAS (domain or fragment, E. coli, UniProt P31667 244-292, looked up)
chain: MTIAERLRQEGEQSKALHIAKIMLESGVPLADIMRFTGLSEEELAAASQ
stoichiometry N (SEC-MALS): 2
